Data reported in patent publication US20240002497A1 (Merck Sharp & Dohme, published 2024).
Where a chain is given by its changes, count along the chain named. In names and notes the source's numbering stands. Values belong to the binder of their own block, whether it stands above or below them.

Columns and labels:
huNav1.7α + β1 = target: T1, huNav1.7α + β1 (human); test: competition FACS vs EC25 of F103275B05(N93R), HEK
T1 construct: HEK293 cells; also called huNav1.7-beta1; huNav1.7-β1

huNav1.7α [1] = target: T2, huNav1.7α (human, UniProt Q15858 1-1988); test: competition FACS vs EC25 of F103275B05(N93R), HEK
T2 construct: HEK cells expressing the α subunit without β subunits; also called huNav1.7 (alpha-subunit); Human Nav1.7α

huNav1.7α + β1-β2-β3 [2] = target: T3, huNav1.7α + β1-β2-β3 (human, UniProt Q15858 1-1988; A5A6L6 19-218; O60939 30-215; Q2KI11 23-215); test: competition FACS vs EC25 of F103275B05(N93R), HEK FlpIn
T3 construct: also called huNav1.7-beta1-beta2-beta3; huNav1.7-β1-β2-β3

huNav1.7α + β1-β2-β3 [3] = target: T3, huNav1.7α + β1-β2-β3; test: cell-based or functional assay
rhNav1.7α + β1-β2-β3 [4] = target: rhNav1.7α + β1-β2-β3 (rhesus monkey); test: cell-based or functional assay
huNav1.7α [5] = target: T2, huNav1.7α; test: cell-based or functional assay
Rhesus Nav1.7α = Rhesus Nav1.7α (rhesus, UniProt Q15858 1-1988 (human entry)); test: cell-based or functional assay
rhNav1.7α + β1-β2-β3 [6] = target: T4, rhNav1.7α + β1-β2-β3 (rhesus monkey); test: competition FACS vs EC40 of F103275B05(N93R), CHO FlpIn
T4 construct: also called rhNav1.7-beta1-beta2-beta3; rhNav1.7-β1-β2-β3

huNav1.7α + β1-β2-β3 [7] = target: T3, huNav1.7α + β1-β2-β3; test: competition FACS vs EC25 of F103275B05(N93R), CHO FlpIn
[8] = target: T5, rhNav1.7α + β1-β2-β3 (rhesus Nav1.7α co-expressed with Navβ1, Navβ2 and Navβ3) (rhesus monkey); test: binding FACS; plus = higher activity than reference
T5 construct: also called rhNav1.7-beta1-beta2-beta3

[9] = target: T6, huNav157chimera14+β1-β2-β3 (human, UniProt Q07699 19-218; O60939 30-215; Q9NY72 23-215); test: binding FACS, HEK FlpIn cells
T6 construct: HEK FlpIn line; also called huNav157 chimera 14-beta1-beta2-beta3; Nav157ch14-β1-β2-β3
Experimental: (§1) Binding of the ISVDs to cell-expressed Nav1.7α was detected via murine anti-Flag (Sigma, catalog #F1804). Briefly, cells were resuspended in FACS buffer (PBS, 10% FBS, NaN₃) and transferred to a 96-well V-bottom plate at 1×10^5 cells/well. Purified FLAG3-tagged ISVD was diluted in FACS buffer and added to the cells for 30 minutes at 4° C. […] Prior to the read-out, the samples were resuspended in 1 μg/mL propidium iodide (Sigma, catalog #P4170) to exclude dead cells. Between each step, the cells were centrifuged for 5 minutes at 200 grams and washed with 100 μL/well FACS buffer.
(§2) Crude periplasmic extracts containing ISVDs from phage display selections (as described above) were screened in FACS for binding to huNav1.7α but not to huNav1.5a. […] As used in Table 8, the drawings, and throughout the description, Navβ1, Navβ2, and Navβ3 are human homologs unless specifically identified otherwise.

huNav1.5α+β1-β2-β3 = target: T7, huNav1.5α+β1-β2-β3 (human, UniProt Q14524 1-2016; A5A6L6 19-218; O60939 30-215; Q2KI11 23-215); test: binding FACS, HEK FlpIn cells
T7 construct: in the cell P2A cleaves it into α, β1, β2, β3; also called huNav1.5-beta1-beta2-beta3
Experimental: as §1, §2

huNav1.7α+β1-β2-β3 [10] = target: T8, huNav1.7α+β1-β2-β3 (human, UniProt Q15858 1-1988; Q07699 19-218; O60939 30-215; Q9NY72 23-215); test: binding FACS, HEK FlpIn cells
T8 construct: 5N11S variant; also called huNav1.7-beta1-beta2-beta3; huNav1.7α+Navβ1-Navβ2-Navβ3
Experimental: as §1, §2

huNav1.7α+β1 = target: T9, huNav1.7α+β1 (human, UniProt Q15858 1-1988; Q07699 19-218); test: binding FACS, HEK293 cells
T9 construct: also called huNav1.7-beta1; HEKa/β1
Experimental: as §1, §2

huNav1.4α = target: T10, huNav1.4α (human, UniProt P35499 1-1836); test: binding FACS on stable huNav1.x paralog HEK293T cell lines
T10 construct: also called huNav1.4 (alpha subunit)

huNav1.2α = target: T11, huNav1.2α (human, UniProt Q99250 1-2005); test: as above
T11 construct: also called huNav1.2 (alpha subunit)

huNav1.3α = target: T12, huNav1.3α (human, UniProt Q9NY46 1-2000); test: as above
T12 construct: also called huNav1.3 (alpha subunit)

huNav1.6α = target: T13, huNav1.6α (human, UniProt Q9UQD0 1-1980); test: as above
T13 construct: also called huNav1.6 (alpha subunit)

huNav1.5α = target: T14, huNav1.5α (human, UniProt Q14524 1-2016); test: as above
T14 construct: also called huNav1.5 (alpha subunit)

huNav1.8α = target: T15, huNav1.8α (human, UniProt Q9Y5Y9 1-1956); test: as above
T15 construct: also called huNav1.8 (alpha subunit)

huNav1.1α = huNav1.1α (human, UniProt P35498 1-2009); test: as above
[11] = target: T16, huNav1.7(N146S, V194I, F276V, R277Q, E281V, V331M, E504D, D507E, S508N, N533S)-β1-β2-β3 (human, UniProt Q15858 1-1988; Q07699 19-218; O60939 30-215; Q9NY72 23-215); test: FACS on transiently transfected HEK293T cells
T16 construct: Transiently on HEK293T cells; The text prints V1941 for V194I; also called chimeric variant of huNav1.7α with all DI huNav1.7α-rhNav1.7α polymorphisms
Experimental: as §1
FACS binding studies (as described above) were performed on HEK293T cells transiently transfected with a chimeric variant of huNav1.7α in which all the huNav1.7α-rhNav1.7α polymorphisms of DI are present (N146S, V1941, F276V, R277Q, E281V, V331M, E504D, D507E, S508N, N533S). Replacing the huNav1.7α DI sequence for that of rhNav1.7α is sufficient to abolish the binding of F0103262CO2, F0103265B04, F0103262B06, and F0103265A11 to huNav1.7α, recapitulating the absence of binding on rhNav1.7α (see FIGS. 21A-21B).

huNav1.7α+β1-β2-β3 [12] = target: T8, huNav1.7α+β1-β2-β3; test: binding FACS, CHO FlpIn cells
Experimental: as §1, §2

rhNav1.7α+β1-β2-β3 = target: T17, rhNav1.7α+β1-β2-β3 (rhesus monkey α subunit with human β …); test: binding FACS, CHO FlpIn cells
T17 construct: P2A cleaves it into α, β1, β2, β3; also called rhNav1.7-beta1-beta2-beta3
Experimental: as §1, §2

T12 sequence (Q9NY46 whole entry): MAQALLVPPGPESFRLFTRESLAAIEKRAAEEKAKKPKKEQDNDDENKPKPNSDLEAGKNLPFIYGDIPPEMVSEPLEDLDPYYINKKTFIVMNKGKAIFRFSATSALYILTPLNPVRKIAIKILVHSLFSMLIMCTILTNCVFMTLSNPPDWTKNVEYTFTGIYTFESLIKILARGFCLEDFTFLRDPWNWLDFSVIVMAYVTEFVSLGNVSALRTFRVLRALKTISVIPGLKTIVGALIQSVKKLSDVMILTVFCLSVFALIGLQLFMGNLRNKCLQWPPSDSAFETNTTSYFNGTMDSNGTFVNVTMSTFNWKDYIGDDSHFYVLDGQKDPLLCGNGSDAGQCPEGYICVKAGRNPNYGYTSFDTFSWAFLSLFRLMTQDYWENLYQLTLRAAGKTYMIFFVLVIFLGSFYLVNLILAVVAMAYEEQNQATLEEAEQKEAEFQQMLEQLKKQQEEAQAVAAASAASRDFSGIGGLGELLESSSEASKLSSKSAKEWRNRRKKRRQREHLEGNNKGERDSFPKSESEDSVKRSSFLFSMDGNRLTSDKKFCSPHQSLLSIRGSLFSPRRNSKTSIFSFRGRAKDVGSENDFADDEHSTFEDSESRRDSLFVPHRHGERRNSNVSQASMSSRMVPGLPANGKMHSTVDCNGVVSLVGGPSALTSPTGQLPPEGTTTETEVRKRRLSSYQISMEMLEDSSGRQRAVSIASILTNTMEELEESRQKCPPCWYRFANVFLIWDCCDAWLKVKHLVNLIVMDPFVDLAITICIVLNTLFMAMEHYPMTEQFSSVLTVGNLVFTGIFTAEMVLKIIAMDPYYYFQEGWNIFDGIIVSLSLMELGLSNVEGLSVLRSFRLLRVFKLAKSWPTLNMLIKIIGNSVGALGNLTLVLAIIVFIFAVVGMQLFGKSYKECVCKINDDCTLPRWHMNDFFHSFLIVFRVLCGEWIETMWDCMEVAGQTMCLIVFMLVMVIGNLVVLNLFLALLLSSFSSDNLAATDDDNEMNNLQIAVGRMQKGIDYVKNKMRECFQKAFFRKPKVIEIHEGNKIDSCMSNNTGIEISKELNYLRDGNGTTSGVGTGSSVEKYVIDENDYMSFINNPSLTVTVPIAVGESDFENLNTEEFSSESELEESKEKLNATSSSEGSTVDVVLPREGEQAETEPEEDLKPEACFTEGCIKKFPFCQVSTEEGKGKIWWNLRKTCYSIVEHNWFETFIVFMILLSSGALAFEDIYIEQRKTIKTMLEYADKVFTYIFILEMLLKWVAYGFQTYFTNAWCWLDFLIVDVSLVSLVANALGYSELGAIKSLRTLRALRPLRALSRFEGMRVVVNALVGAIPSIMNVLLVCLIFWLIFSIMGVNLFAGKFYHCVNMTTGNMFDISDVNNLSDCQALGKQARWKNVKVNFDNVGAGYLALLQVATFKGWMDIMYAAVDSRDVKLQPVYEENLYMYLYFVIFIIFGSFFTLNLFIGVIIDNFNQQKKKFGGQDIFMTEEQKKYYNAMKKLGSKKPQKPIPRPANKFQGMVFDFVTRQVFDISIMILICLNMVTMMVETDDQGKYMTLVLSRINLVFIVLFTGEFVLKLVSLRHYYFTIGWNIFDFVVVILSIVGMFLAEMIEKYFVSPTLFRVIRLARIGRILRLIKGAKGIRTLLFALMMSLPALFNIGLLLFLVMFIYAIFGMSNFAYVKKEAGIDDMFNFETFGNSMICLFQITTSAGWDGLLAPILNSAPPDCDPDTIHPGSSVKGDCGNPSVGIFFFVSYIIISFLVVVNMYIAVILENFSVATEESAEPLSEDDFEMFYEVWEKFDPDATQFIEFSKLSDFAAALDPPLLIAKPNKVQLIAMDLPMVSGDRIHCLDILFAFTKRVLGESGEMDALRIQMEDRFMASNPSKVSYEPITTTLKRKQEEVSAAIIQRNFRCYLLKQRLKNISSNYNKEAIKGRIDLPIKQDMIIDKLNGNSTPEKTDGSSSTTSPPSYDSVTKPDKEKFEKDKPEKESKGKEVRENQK
T15 sequence (Q9Y5Y9 whole entry): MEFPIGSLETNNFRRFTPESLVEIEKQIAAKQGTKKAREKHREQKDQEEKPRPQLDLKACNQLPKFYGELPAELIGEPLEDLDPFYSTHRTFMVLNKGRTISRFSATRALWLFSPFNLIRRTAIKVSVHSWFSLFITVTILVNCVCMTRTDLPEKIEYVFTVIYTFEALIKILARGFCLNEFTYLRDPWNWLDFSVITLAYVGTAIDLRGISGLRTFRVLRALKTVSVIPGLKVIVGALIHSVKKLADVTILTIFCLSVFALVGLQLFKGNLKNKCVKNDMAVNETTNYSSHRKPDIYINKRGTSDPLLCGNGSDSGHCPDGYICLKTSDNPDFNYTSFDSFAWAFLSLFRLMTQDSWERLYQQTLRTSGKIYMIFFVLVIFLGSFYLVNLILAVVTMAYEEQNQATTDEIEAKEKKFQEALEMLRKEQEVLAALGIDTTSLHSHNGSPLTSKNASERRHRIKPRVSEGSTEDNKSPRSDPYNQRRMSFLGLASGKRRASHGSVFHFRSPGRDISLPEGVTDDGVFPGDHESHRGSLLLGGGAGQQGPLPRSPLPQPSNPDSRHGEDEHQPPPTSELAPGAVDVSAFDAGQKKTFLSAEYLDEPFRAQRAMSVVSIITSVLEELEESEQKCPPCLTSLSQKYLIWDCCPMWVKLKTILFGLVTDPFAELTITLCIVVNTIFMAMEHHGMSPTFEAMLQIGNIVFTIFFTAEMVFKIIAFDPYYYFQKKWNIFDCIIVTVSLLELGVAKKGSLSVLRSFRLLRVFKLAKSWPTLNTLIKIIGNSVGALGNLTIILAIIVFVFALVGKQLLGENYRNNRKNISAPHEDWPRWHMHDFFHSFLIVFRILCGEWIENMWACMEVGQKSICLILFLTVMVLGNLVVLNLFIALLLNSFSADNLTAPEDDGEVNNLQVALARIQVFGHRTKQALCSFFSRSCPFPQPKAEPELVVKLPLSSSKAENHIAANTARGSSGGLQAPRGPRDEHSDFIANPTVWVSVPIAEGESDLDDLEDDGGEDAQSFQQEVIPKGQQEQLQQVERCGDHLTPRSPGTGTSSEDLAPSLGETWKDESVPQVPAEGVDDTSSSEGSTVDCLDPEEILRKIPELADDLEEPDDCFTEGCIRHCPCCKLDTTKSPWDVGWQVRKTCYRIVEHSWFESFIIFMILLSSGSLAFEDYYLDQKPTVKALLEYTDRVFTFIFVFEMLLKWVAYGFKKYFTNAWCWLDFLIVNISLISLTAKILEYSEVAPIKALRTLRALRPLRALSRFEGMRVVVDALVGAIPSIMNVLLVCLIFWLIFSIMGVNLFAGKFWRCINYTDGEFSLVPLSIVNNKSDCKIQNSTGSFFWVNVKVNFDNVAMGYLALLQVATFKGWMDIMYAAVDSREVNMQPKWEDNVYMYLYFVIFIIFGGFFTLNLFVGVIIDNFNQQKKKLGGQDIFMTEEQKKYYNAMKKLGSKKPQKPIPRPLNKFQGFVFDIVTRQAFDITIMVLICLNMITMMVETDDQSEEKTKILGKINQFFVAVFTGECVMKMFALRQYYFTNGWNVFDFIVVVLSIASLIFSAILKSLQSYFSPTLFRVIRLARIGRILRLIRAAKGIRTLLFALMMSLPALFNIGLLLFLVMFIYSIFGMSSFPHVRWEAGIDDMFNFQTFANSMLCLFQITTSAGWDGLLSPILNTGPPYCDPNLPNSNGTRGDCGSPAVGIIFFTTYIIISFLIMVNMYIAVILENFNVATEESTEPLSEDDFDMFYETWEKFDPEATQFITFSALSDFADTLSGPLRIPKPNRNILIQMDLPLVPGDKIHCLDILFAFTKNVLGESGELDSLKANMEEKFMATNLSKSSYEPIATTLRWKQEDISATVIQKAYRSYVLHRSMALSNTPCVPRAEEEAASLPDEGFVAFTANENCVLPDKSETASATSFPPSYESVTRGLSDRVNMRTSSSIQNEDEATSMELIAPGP

B2: F010301886 (VHH)
VHH: EVQLVESGGGLVQPGGSLRLSCATTSRAFIRDVFTGWYRRVPGKERELVARIYNGGNTQYADFAKGRFSISRDNAKKMVTLRMSNLKPEDTGVYYCLFSGTINTGREYRSGDYWGQGTLVTVSS
notes: also called F0103464B09(N58Q); N58Q
- EC50 fold change compared to reference [8]: 2 fold

B5: F0103262C02 (parental)-FLAG-HIS6 (VHH)
VHH: EVQLVESGGGLVQAGGSLTLSCAASGLPFGLYILGWIRRAPGKERDFVAAISRSGRDTVYANSVKGRFTISRDNAKNMVYLRMDNLRPEDTAAYYCAVDSVPRGTPTITESEYAIWGQGTLVTVSS
notes: also called F0103262CO2; F103262CO2
- EC50 [9]: 470 nM
- binding result (huNav1.5α+β1-β2-β3): no binding
- EC50 (huNav1.7α+β1-β2-β3 [10]): 380 nM
- EC50 (huNav1.7α+β1): 180 nM
- binding result (huNav1.4α): no binding
- binding result (huNav1.2α): no binding
- binding result (huNav1.3α): no binding
- binding result (huNav1.6α): no binding
- binding result (huNav1.5α): no binding
- binding result (huNav1.8α): no binding
- binding result (huNav1.1α): no binding
- binding result [11]: no binding (tested: 1 µM)
- EC50 (huNav1.7α+β1-β2-β3 [12]): 320 nM
- binding result (rhNav1.7α+β1-β2-β3): no binding

B7: F0103265B04 (parental)-FLAG-HIS6 (VHH)
VHH: EVQLVESGGGLVQPGGSLRLSCAAPSFIFSNNYMEWYRQAPGKQRDWVARITGRGNTNYLDSVKGRFTISRDDAKNTVYLEIDSLKPEDTAVYYCSALWYGGRAWGKGTLVTVSS
- EC50 [9]: 8.5 nM
- binding result (huNav1.5α+β1-β2-β3): no binding
- EC50 (huNav1.7α+β1-β2-β3 [10]): 8.1 nM
- EC50 (huNav1.7α+β1): 5.5 nM
- binding result (huNav1.4α): no binding
- binding result (huNav1.2α): no binding
- binding result (huNav1.3α): no binding
- binding result (huNav1.6α): no binding
- binding result (huNav1.5α): no binding
- binding result (huNav1.8α): no binding
- binding result (huNav1.1α): no binding
- binding result [11]: no binding (tested: 1 µM)
- EC50 (huNav1.7α+β1-β2-β3 [12]): 5.4 nM
- binding result (rhNav1.7α+β1-β2-β3): no binding

Results, then the binder that gave them:

- IC50 (huNav1.7α + β1): 140 nM
- IC50 (huNav1.7α [1]): 86 nM
- IC50 (huNav1.7α + β1-β2-β3 [2]): 5.2 nM
- Qpatch IC50 (huNav1.7α + β1-β2-β3 [3]): 0.8 nM
- Qpatch IC50 (rhNav1.7α + β1-β2-β3 [4]): 75 nM
- Qpatch IC50 (huNav1.7α [5]): 74 nM
- Qpatch IC50 (Rhesus Nav1.7α): 104 nM
- IC50 (rhNav1.7α + β1-β2-β3 [6]): 1.2 nM
- IC50 (huNav1.7α + β1-β2-β3 [7]): 4.1 nM
B1: F010302377 (bispecific antibody)
chain: DVQLVESGGGLVQPGGSLRLSCAASGSIFNINSMAWYRRAPGKQRELVASSTNGGSTNYADSVKGRFTISRDNAKRVYLQMNSLTPEDTAVYYCRALLQPSIYDISRTYWGQGTLVTVSSGGGGSGGGGSGGGGSGGGGSGGGGSGGGGSGGGGSGGGGSGGGGSGGGGSEVQLVESGGGLVQAGGSLRLSCAASKSILSFAYMRWYRQAPGKQREFVASIAIGGATSYTDSVKGRFTISRDNAKNTVYLQMNSLKPEDTAVYYCSAPAGQYRGQGTLVTVSSGAADYKDHDGDYKDHDIDYKDDDDKGAAHHHHHH
notes: also called F0103275B05(E1D, N93R)-50GS-F0103492E09-FLAG3-HIS6

- EC50 fold change compared to reference [8]: 3 fold
B3: F010301892 (VHH)
VHH: B2 VHH with V33L, Q59N
notes: also called F0103464B09(V33L); V33L

- EC50 fold change compared to reference [8]: 3 fold
B4: F010301888 (VHH)
VHH: B2 VHH with S26H, Q59N
notes: also called F0103464B09(S26H); S26H

- IC50 (huNav1.7α + β1): 150 nM
- IC50 (huNav1.7α [1]): 85 nM
- IC50 (huNav1.7α + β1-β2-β3 [2]): 16 nM
- Qpatch IC50 (huNav1.7α + β1-β2-β3 [3]): 3.4 nM
- Qpatch IC50 (rhNav1.7α + β1-β2-β3 [4]): 131 nM
- Qpatch IC50 (huNav1.7α [5]): 111 nM
- Qpatch IC50 (Rhesus Nav1.7α): 133 nM
- IC50 (rhNav1.7α + β1-β2-β3 [6]): 4.8 nM
- IC50 (huNav1.7α + β1-β2-β3 [7]): 19 nM
B6: F010302379 (bispecific antibody)
chain: DVQLVESGGGLVQPGGSLRLSCAASGSIFNINSMAWYRRAPGKQRELVASSTNGGSTNYADSVKGRFTISRDNAKRVYLQMNSLTPEDTAVYYCRALLQPSIYDISRTYWGQGTLVTVSSGGGGSGGGGSGGGGSGGGGSGGGGSGGGGSGGGGSGGGGSGGGGSGGGGSEVQLVESGGGLVQAGGSLRLSCAASGRTFSRYQMGWFRQAPGKEREFVAYISWSGSTRYVDSVKGRFTISRDNAKNTVYLQMNSLKPEDTAVYHCAAGTAGIISSRPETYDSWGQGTQVTVSSGAADYKDHDGDYKDHDIDYKDDDDKGAAHHHHHH
notes: also called F0103275B05(E1D, N93R)-50GS-F0103500E03(P14A, L108Q)-FLAG3-HIS6
